These results are taken from patent US20250277045A1 (KEYMED BIOSCIENCES, published 2025).

Where a chain is given by its changes, count along the chain named.

T1: human BCMA on cells (CHO-hBCMA clone 2C2; NCI-H929; RPMI-8226) (human, UniProt Q02223 1-184)
T1 sequence (looked up): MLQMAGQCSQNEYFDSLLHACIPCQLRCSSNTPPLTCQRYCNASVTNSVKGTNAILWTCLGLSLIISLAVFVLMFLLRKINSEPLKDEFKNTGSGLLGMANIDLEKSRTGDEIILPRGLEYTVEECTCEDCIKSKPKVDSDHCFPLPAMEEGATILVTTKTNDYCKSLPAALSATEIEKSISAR

B1: h38E2-CD3 (bispecific antibody, V domains shown)
VH 1: QVQLVQSGAEVKKPGSSVKVSCKASGYTFTNYWIGWVREAPGQGLEWMGDIYPGSGDTNYNGKFQGRVTLTADISSNTAYMELSSLRSEDTAVYYCARSYYRNDAASFAYWGQGTLVTVSS
VL 1: DIQMTQSPSSLSASVGDRVTITCQASQDVDTAVAWYQKKPGKAPKLLIYWTSTRHTGVPSRFSGSGSGTDFTFTISSLQPEDIATYFCQQFSSYPLTFGQGTKVEIK
VH 2: EVQLVESGGGLVQPGGSLRLSCAASGFTFNTYAMNWVRKAPGKGLEWVGRIRSKYNNYATYYADSVKDRFTISRDDSKNSLYLQMNSLKTEDTAVYYCVRHGNFGNSYVSWFAYWGQGTLVTVSS
VL 2: QAVVTQEPSLTVSPGGTVTLTCRSSTGAVTTSNYANWVQEKPGQAPRGLIGGTNKRAPWTPARFSGSLLGGKAALTITGAQAEDEAEYYCVLWYSNLWVFGGGTKLTVL
B2: h23F8-CD3 (bispecific antibody, V domains shown)
VH 1: QVQLVQSGSELKKPGASVKVSCKASGYTFTNFGMNWVREAPGQGLEWMGWINTYTGDQIYADDFKGRFAFSLDTSASTAYLQISSLKAEDTAVYFCARGEIYYGYDVGFVYWGQGTLVTVSS
VL 1: DIVLTQSPASLAVSPGQRATITCRASKSVSTSGYSYMHWYQKKPGQPPKLLIYLASNLESGVPARFSGSGSGTDFTLTINPVEANDTANYYCQHSRELPWTFGQGTKVEIK
VH 2: B1 VH 2
VL 2: B1 VL 2
B3: h40C6-CD3 (bispecific antibody, V domains shown)
VH 1: B2 VH 1 with T28I, D57E
VL 1: B2 VL 1 with K27R, S30T, M37I, N57D, S60A
VH 2: B1 VH 2
VL 2: B1 VL 2
B4: h38D9-CD3 (bispecific antibody, V domains shown)
VH 1: B2 VH 1 with T28I, D57E
VL 1: B2 VL 1 with A55G, N57D
VH 2: B1 VH 2
VL 2: B1 VL 2
B5: 38E2 Fab (Fab, V domains shown)
VH: QVQLQQSGAELVRPGTSVKMSCKAAGYTFTNYWIGWVKQRPGHGLEWIGDIYPGSGDTNYNGKFKGKATLAADISSNAAYMQLSSLTSEDSAIYYCARSYYRNDAASFAYWGQGTLVTVSA
VL: DIVMTQSHKFMSTSVGDRVNITCKASQDVDTAVAWYQQKPSQSPKLLIYWTSTRHTGVPDRFTGSGSGTDFTLTISNVQSEDLADYFCQQFSSYPLTFGAGTKLELK
notes: Murine BCMA Fab, Ni-NTA purified
B6: 29A11 Fab (Fab, V domains shown)
VH: EIQLVQSGPELKKPGETVKISCKASGYIFTNFGMNWVRQAPGKALKWMGWINTYTGEQIYADDFKGRFAFSLETSASTAYLQINNLKNEDTATYFCARGEIYYGYDVGFVYWGQGTLVTVSA
VL: DIVLTQSPASLAVSLGQRATISCRASKSVSTSGYSYMHWYQQKPGQPPKLLIYLASNLESGVPARFSGSGSGTDFTLNIHPVEEEDAATYYCQHSRELPWTFGGGTKLEIK
notes: as for B5
B7: 38F9 Fab (Fab, V domains shown)
VH: B6 VH
VL: NIVLTQSPASLAVSLGQRATISCRASESVDSSGNSFMHWYQQKPGQPPKLLIYLESNLESGVPARFSGSGSRTDFTLTIEPVEADDAATYYCQQSNEDPWTFGGGTKLEIK
notes: as for B5
B8: 3G11 Fab (Fab, V domains shown)
VH: B6 VH
VL: B6 VL with A12T, N57D, P63S
notes: Murine BCMA Fab from phage library, expressed in TG1 periplasm, purified by Ni-NTA
B9: 16B9 Fab (Fab, V domains shown)
VH: B6 VH with A40T, Q58T, R67L, T74V, S75P, Y105F, V110A
VL: B6 VL with A12T, M37I, N57D, I110L
notes: as for B5
B10: 6G5 Fab (Fab, V domains shown)
VH: B6 VH
VL: B6 VL with V13I, S30T, M37I, N57D, S60A, I110L
notes: as for B5
B11: 15H10 Fab (Fab, V domains shown)
VH: B6 VH with I2V, V5Q, I28T, A40T, E57D, Q58L, A61G, V110A
VL: B6 VL
notes: as for B5
B12: 38D9 Fab (Fab, V domains shown)
VH: B6 VH with I2V, V5Q
VL: B6 VL with A12T, R24G, A55G, N57D
notes: as for B5
B13: 23F8 Fab (Fab, V domains shown)
VH: B6 VH with K23T, I28T, K46R, E57D
VL: B6 VL
notes: as for B5
B14: 40C6 Fab (Fab, V domains shown)
VH: B6 VH
VL: B6 VL with V13I, K27R, S30T, M37I, N57D, S60A
notes: as for B5
B15: 34G2 Fab (Fab, V domains shown)
VH: B6 VH with I2V, V5Q, K12R, I28T, F32Y, R38K, A40T, A44G, Q58R
VL: B6 VL with A12V, K107R
notes: as for B5
B16: 15G9 Fab (Fab, V domains shown)
VH: QVQLQQSGPELVKPGASVNLSCKASGYTFTNYVIHWVKQKPGQGLEWIGYTIPYTDVTKYNEKFKAKATLTSDKSSSTAFMELSSLTSEDSAVYYCARYDFDGYFDYWGQGTTLTVSS
VL: DIVMTQAAFSNPVTLGTSASISCRSSKSLLHSNGITYLYWYLQKPGQSPQLLIYQMSNLASGVPDRFSSSGSGTDFTLRISRVEAEDVGVYYCAQNLELPWTFGGGTKLELK
notes: as for B5
B17: 23G9 Fab (Fab, V domains shown)
VH: EVQLQQSGTVLTRPGASVKLSCKASGYSFSSYWMHWLKQRPGQGLEWIGAIYPGNSRTTYNQKFKGEAKLTADTSASTAYMDLSSLTNADSAVYFCTREETYWGQGTLVTVSA
VL: DVVMTQTPLSLSVTIGQPASISCKSSQGLLDSYGVTYLNWLFQRPGQPPKRLIYLVSELDSGVPDRFTGSGSGTDFTLRISRVEAEDLGIYYCWQGSHFPLTFGAGTKLELK
notes: as for B5
For Upregulation of CD25 (%), CD4+T in this document: test concentration or dose not given here.
For Upregulation of CD25 (%), CD8+T in this document: test concentration or dose not given here.
For Upregulation of CD69 (%), CD4+T in this document: test concentration or dose not given here.
For Upregulation of CD69 (%), CD8+T in this document: test concentration or dose not given here.

Sequence of human CD3 on T cells (Jurkat cells; human peripheral blood CD4+ and CD8+ T cells) (P07766 23-207): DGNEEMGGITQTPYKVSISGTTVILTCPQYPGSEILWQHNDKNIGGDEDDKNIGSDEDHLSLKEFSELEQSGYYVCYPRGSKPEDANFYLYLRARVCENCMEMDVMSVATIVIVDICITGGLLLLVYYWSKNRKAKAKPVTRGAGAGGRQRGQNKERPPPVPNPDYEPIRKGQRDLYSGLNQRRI

One assay concerns the target T1, human BCMA on cells (CHO-hBCMA clone …). In words: cell-based or functional assay.
B1: the “Killing EC50 (TDCC, LDH release; PBMC + RPMI-8226)” value came out at 13.6 nM.
Same read-out and setting: next, B2: 0.81 nM; B3: 1.12 nM; B4: 1.04 nM.

The next assay concerns the target human CD3 on T cells (Jurkat cells; human peripheral blood CD4+ and CD8+ T cells) (human, UniProt P07766 23-207). Put plainly: cell-based or functional assay.
As to B1, the “Upregulation of CD25 (%), CD4+T” value came out at 29%; the “Upregulation of CD25 (%), CD8+T” value was found to be 38%; the “Upregulation of CD25 EC50, CD4+T” value stood at 3.65 nM; the “Upregulation of CD25 EC50, CD8+T” value came out at 3.65 nM. In addition, the “Upregulation of CD69 (%), CD4+T” value worked out at 55%; the “Upregulation of CD69 (%), CD8+T” value came to 69%; the “Upregulation of CD69 EC50, CD4+T” value is 7.4 nM; the “Upregulation of CD69 EC50, CD8+T” value was 2.32 nM.
As for B2, the “Upregulation of CD25 (%), CD4+T” value worked out at 25%; the “Upregulation of CD25 (%), CD8+T” value amounted to 34%; the “Upregulation of CD25 EC50, CD4+T” value was determined as 0.57 nM; the “Upregulation of CD25 EC50, CD8+T” value was determined as 0.79 nM. For the same molecule, the “Upregulation of CD69 (%), CD4+T” value is 41%; the “Upregulation of CD69 (%), CD8+T” value stood at 59%; the “Upregulation of CD69 EC50, CD4+T” value amounted to 0.44 nM; the “Upregulation of CD69 EC50, CD8+T” value amounted to 0.49 nM.
For B3, the “Upregulation of CD25 (%), CD4+T” value amounted to 25%; the “Upregulation of CD25 (%), CD8+T” value amounted to 28%; the “Upregulation of CD25 EC50, CD4+T” value was found to be 0.45 nM; the “Upregulation of CD25 EC50, CD8+T” value was 0.49 nM. The “Upregulation of CD69 (%), CD4+T” value came to 37%; the “Upregulation of CD69 (%), CD8+T” value was determined as 44%; the “Upregulation of CD69 EC50, CD4+T” value is 0.63 nM; the “Upregulation of CD69 EC50, CD8+T” value came out at 0.21 nM.
For the molecule B4, the “Upregulation of CD25 (%), CD4+T” value was determined as 29%; the “Upregulation of CD25 (%), CD8+T” value worked out at 35%; the “Upregulation of CD25 EC50, CD4+T” value is 0.77 nM; the “Upregulation of CD25 EC50, CD8+T” value is 1.75 nM. The “Upregulation of CD69 (%), CD4+T” value was determined as 57%; the “Upregulation of CD69 (%), CD8+T” value came out at 52%; the “Upregulation of CD69 EC50, CD4+T” value was 0.52 nM; the “Upregulation of CD69 EC50, CD8+T” value came to 0.37 nM.

The target in a further assay is T2, human BCMA-hFc kih monovalent recombinant protein (human, UniProt P0DOX5 223-449 = IgG part).
T2 construct: Knob-into-hole heterodimer with one BCMA arm, expressed in HEK293E; also called human BCMA-hFc recombinant protein
In words: SPR (Biacore T200), BCMA-hFc captured on Protein A chip, Fab as analyte, 1:1 Langmuir. From the text:
Kinetic constants were fitted using Biacore T200 evaluation software with a Langmuir 1:1 kinetics model.
For B5, the Kd was 8.1 nM, the koff was 0.000798 s⁻¹ and the kon is 98800 M⁻¹ s⁻¹.
The corresponding values for B6 are 3.2 nM, 0.000243 s⁻¹ and 76400 M⁻¹ s⁻¹.
Consider B7, for which the Kd stood at 344 nM, the koff turned out to be 0.002 s⁻¹ and the kon was 5810 M⁻¹ s⁻¹.
The corresponding values for B8 are 13 nM, 0.000432 s⁻¹ and 33300 M⁻¹ s⁻¹.
For the molecule B9, the Kd was 4.1 nM, the koff came out at 0.000476 s⁻¹ and the on-rate (kon) was found to be 117000 M⁻¹ s⁻¹.
For B10, in that order: 2.1 nM, 6.13e-05 s⁻¹ and 29400 M⁻¹ s⁻¹.
For B11, in that order: 18.3 nM, 0.00069 s⁻¹ and 37800 M⁻¹ s⁻¹.
For B12, in that order: 5.6 nM, 0.000329 s⁻¹ and 59100 M⁻¹ s⁻¹.
Regarding B13, the Kd was 5.6 nM, the koff was 0.000322 s⁻¹ and the kon stood at 57700 M⁻¹ s⁻¹.
Consider B14, for which the Kd stood at 6.4 nM, the koff worked out at 0.000271 s⁻¹ and the on-rate constant (kon) is 42100 M⁻¹ s⁻¹.
For B15, in that order: 5 nM, 0.000705 s⁻¹ and 142000 M⁻¹ s⁻¹.
For B16, in that order: 12.2 nM, 0.0126 s⁻¹ and 1.03e+06 M⁻¹ s⁻¹.
The corresponding values for B17 are 76.9 nM, 0.000313 s⁻¹ and 4070 M⁻¹ s⁻¹.
